Data reported in US20100112057A1 (published 2010).

Tests used:
[1] = target: T1, streptavidin (streptavidin-coated SA chip) (UniProt P22629 37-163, limits assumed); test: SPR, Biacore 3000, streptavidin-coated (SA) chip
T1 construct: Surface protein of the commercial SPR chip

[2] = target: the molecule itself; test: circular dichroism in PBS; concentration dependence of MRE at 222 nm fitted for the Kd of coiled-coil dimerization (unfolding/dissociation of the dimer)

T1 sequence (P22629 37-163 limits assumed): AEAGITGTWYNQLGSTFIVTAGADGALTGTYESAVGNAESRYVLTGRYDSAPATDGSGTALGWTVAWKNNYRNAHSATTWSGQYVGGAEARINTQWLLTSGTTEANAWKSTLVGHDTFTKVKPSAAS

B1: PF4ZIP (peptide)
peptide: CGGRMKQLEDKVKKLLKKNYHLENEVARLKKLVG
notes: Free peptide made by Fmoc solid phase synthesis on Rink Amide MBHA resin; The measurement is the self-association of two such chains into a coiled-coil dimer; also called PF4ZIP peptide
binding result [1]: no binding | Kd [2]: 3.48 µM
